# Experimental data reported in patent publication US20150344570A1 (published 2015).
# B1: GpH7-A5/GpH7-B3 variant I336_03V/GpL16-k0 (antibody, human IgG1, kappa)
# heavy 1: not shown
# heavy 2: not shown
# light: DIVMTQSPLSLPVTPGEPASISCQASESLVHSNRNTYLHWYLQKPGQSPQLLIYKVSNRFSGVPDRFSGSGSGTDFTLKISRVEAEDVGVYYCSQNTHVPPTFGQGTKVEIERTVAAPSVFIFPPSDEQLKSGTASVVCLLNNFYPREAKVQWKVDNALQSGNSQESVTEQDSKDSTYSLSSTLTLSKADYEKHKVYACEVTHQGLSSPVTKSFNRGEC
# notes: also called He Ab I336_03V
# B2: GpH7-A5/GpH7-B3 variant L235_15Y/GpL16-k0 (antibody, human IgG1, kappa)
# heavy 1: not shown
# heavy 2: not shown
# light: B1 light
# notes: also called He Ab L235_15Y
# B3: GpH7-A5/GpH7-B3 variant K326_12R/GpL16-k0 (antibody, human IgG1, kappa)
# heavy 1: not shown
# heavy 2: not shown
# light: B1 light
# notes: also called He Ab K326_12R
# B4: GpH7-A5/GpH7-B3 variant Y296_09D/GpL16-k0 (antibody, human IgG1, kappa)
# heavy 1: not shown
# heavy 2: not shown
# light: B1 light
# notes: also called He Ab Y296_09D
# B5: GpH7-A5/GpH7-B3 variant K334_04F/GpL16-k0 (antibody, human IgG1, kappa)
# heavy 1: not shown
# heavy 2: not shown
# light: B1 light
# notes: also called He Ab K334_04F
# B6: GpH7-A5/GpH7-B3 variant T335_20W/GpL16-k0 (antibody, human IgG1, kappa)
# heavy 1: not shown
# heavy 2: not shown
# light: B1 light
# notes: also called He Ab T335_20W
# B7: GpH7-A5/GpH7-B3 variant T335_16H/GpL16-k0 (antibody, human IgG1, kappa)
# heavy 1: not shown
# heavy 2: not shown
# light: B1 light
# notes: also called He Ab T335_16H
# B8: GpH7-A5/GpH7-B3 variant L234_20W/GpL16-k0 (antibody, human IgG1, kappa)
# heavy 1: not shown
# heavy 2: not shown
# light: B1 light
# notes: also called He Ab L234_20W
# B9: GpH7-A5/GpH7-B3 variant T335_13S/GpL16-k0 (antibody, human IgG1, kappa)
# heavy 1: not shown
# heavy 2: not shown
# light: B1 light
# notes: also called He Ab T335_13S
# B10: GpH7-A5/GpH7-B3 variant Y296_16H/GpL16-k0 (antibody, human IgG1, kappa)
# heavy 1: not shown
# heavy 2: not shown
# light: B1 light
# notes: also called He Ab Y296_16H
# B11: GpH7-A5/GpH7-B3 variant L328_06M/GpL16-k0 (antibody, human IgG1, kappa)
# heavy 1: not shown
# heavy 2: not shown
# light: B1 light
# notes: also called He Ab L328_06M
# B12: GpH7-A5/GpH7-B3 variant S239_08L/GpL16-k0 (antibody, human IgG1, kappa)
# heavy 1: not shown
# heavy 2: not shown
# light: B1 light
# notes: also called He Ab S239_08L
# B13: GpH7-A5/GpH7-B3 variant L328_20W/GpL16-k0 (antibody, human IgG1, kappa)
# heavy 1: not shown
# heavy 2: not shown
# light: B1 light
# notes: also called He Ab L328_20W
# B14: GpH7-A5/GpH7-B3 variant K334_16H/GpL16-k0 (antibody, human IgG1, kappa)
# heavy 1: not shown
# heavy 2: not shown
# light: B1 light
# notes: also called He Ab K334_16H
# B15: GpH7-A5/GpH7-B3 variant H268_18N/GpL16-k0 (antibody, human IgG1, kappa)
# heavy 1: not shown
# heavy 2: not shown
# light: B1 light
# notes: also called He Ab H268_18N
# B16: GpH7-A5/GpH7-B3 variant I336_10E/GpL16-k0 (antibody, human IgG1, kappa)
# heavy 1: not shown
# heavy 2: not shown
# light: B1 light
# notes: also called He Ab I336_10E
# B17: GpH7-A5/GpH7-B3 variant L235_04F/GpL16-k0 (antibody, human IgG1, kappa)
# heavy 1: not shown
# heavy 2: not shown
# light: B1 light
# notes: also called He Ab L235_04F
# B18: GpH7-A5/GpH7-B3 variant G236_03V/GpL16-k0 (antibody, human IgG1, kappa)
# heavy 1: not shown
# heavy 2: not shown
# light: B1 light
# notes: also called He Ab G236_03V
# B19: GpH7-A5/GpH7-B3 variant S337_10E/GpL16-k0 (antibody, human IgG1, kappa)
# heavy 1: not shown
# heavy 2: not shown
# light: B1 light
# notes: also called He Ab S337_10E
# B20: GpH7-A5/GpH7-B3 variant L328_14T/GpL16-k0 (antibody, human IgG1, kappa)
# heavy 1: not shown
# heavy 2: not shown
# light: B1 light
# notes: also called He Ab L328_14T
# B21: GpH7-A5/GpH7-B3 variant T335_19Q/GpL16-k0 (antibody, human IgG1, kappa)
# heavy 1: not shown
# heavy 2: not shown
# light: B1 light
# notes: also called He Ab T335_19Q
# B22: GpH7-A5/GpH7-B3 variant S337_20W/GpL16-k0 (antibody, human IgG1, kappa)
# heavy 1: not shown
# heavy 2: not shown
# light: B1 light
# notes: also called He Ab S337_20W
# B23: GpH7-A5/GpH7-B3 variant S337_07I/GpL16-k0 (antibody, human IgG1, kappa)
# heavy 1: not shown
# heavy 2: not shown
# light: B1 light
# notes: also called He Ab S337_07I
# B24: GpH7-A5/GpH7-B3 variant S324_02A/GpL16-k0 (antibody, human IgG1, kappa)
# heavy 1: not shown
# heavy 2: not shown
# light: B1 light
# notes: also called He Ab S324_02A
# B25: GpH7-A5/GpH7-B3 variant V266_07I/GpL16-k0 (antibody, human IgG1, kappa)
# heavy 1: not shown
# heavy 2: not shown
# light: B1 light
# notes: also called He Ab V266_07I
# B26: GpH7-A5/GpH7-B3 variant S267_02A/GpL16-k0 (antibody, human IgG1, kappa)
# heavy 1: not shown
# heavy 2: not shown
# light: B1 light
# notes: also called He Ab S267_02A
# B27: GpH7-A5/GpH7-B3 variant Y296_18N/GpL16-k0 (antibody, human IgG1, kappa)
# heavy 1: not shown
# heavy 2: not shown
# light: B1 light
# notes: also called He Ab Y296_18N
# B28: GpH7-A5/GpH7-B3 variant V266_08L/GpL16-k0 (antibody, human IgG1, kappa)
# heavy 1: not shown
# heavy 2: not shown
# light: B1 light
# notes: also called He Ab V266_08L
# B29: GpH7-A5/GpH7-B3 variant K326_19Q/GpL16-k0 (antibody, human IgG1, kappa)
# heavy 1: not shown
# heavy 2: not shown
# light: B1 light
# notes: also called He Ab K326_19Q
# Molecular target: FcγRIIa H (human, UniProt P12318 34-217)
# Assay: SPR Biacore, captured antibody, FcγR analyte; vs GpH7-A5/GpH7-B3/GpL16-k0 = 100
# FcγRIIa H, sequence (P12318 34-217): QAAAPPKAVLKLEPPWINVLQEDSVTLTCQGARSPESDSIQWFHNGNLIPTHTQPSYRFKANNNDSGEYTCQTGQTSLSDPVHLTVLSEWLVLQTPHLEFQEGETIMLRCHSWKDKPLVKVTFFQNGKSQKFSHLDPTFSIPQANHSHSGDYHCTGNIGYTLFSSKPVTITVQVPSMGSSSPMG
row,He/Con_2aH,Binder
1,102 % of control,B1
2,122 % of control,B2
3,101 % of control,B3
4,104 % of control,B4
5,106 % of control,B5
6,105 % of control,B6
7,105 % of control,B7
8,114 % of control,B8
9,106 % of control,B9
10,104 % of control,B10
11,104 % of control,B11
12,105 % of control,B12
13,113 % of control,B13
14,104 % of control,B14
15,112 % of control,B15
16,102 % of control,B16
17,111 % of control,B17
18,119 % of control,B18
19,102 % of control,B19
20,116 % of control,B20
21,103 % of control,B21
22,102 % of control,B22
23,101 % of control,B23
24,102 % of control,B24
25,106 % of control,B25
26,120 % of control,B26
27,104 % of control,B27
28,104 % of control,B28
29,101 % of control,B29
